Data taken from patent publication US20230143604A1, “QW DOSING OF GIP RECEPTOR AGONIST PEPTIDE COMPOUNDS AND USES THEREOF” (TAKEDA PHARMACEUTICAL COMPANY LIMITED, priority 2020, published 2023).
Starred links: 1 amine or outer side, 2 acyl side, 3 side chain; linkers in the order of their positions; H or OH if unused. Non-standard residues stand in square brackets, D forms with d. Groups on a side chain read outwards from the residue. No end group written: not given here. *: point of attachment. 2OEGgEgE‑C18 diacid = O=C(O)CCCCCCCCCCCCCCCCC(=O)N[C@@H](CCC(=O)N[C@@H](CCC(=O)NCCOCCOCC(=O)NCCOCCOCC(=O)*)C(=O)O)C(=O)O; C18 diacid = O=C(O)CCCCCCCCCCCCCCCCC(=O)*; C17 diacid = O=C(O)CCCCCCCCCCCCCCCC(=O)*; γGlu = O=C(O)[C@H](CCC(=O)[*:2])N[*:1]; NMeY = CN[C@@H](Cc1ccc(O)cc1)C(=O)O; AEEA = NCCOCCOCC(=O)O; Aib = CC(C)(N)C(=O)O

T1: full-length human GIPR with an N-terminal FLAG tag (human, UniProt P48546 22-466)
T1 sequence (looked up): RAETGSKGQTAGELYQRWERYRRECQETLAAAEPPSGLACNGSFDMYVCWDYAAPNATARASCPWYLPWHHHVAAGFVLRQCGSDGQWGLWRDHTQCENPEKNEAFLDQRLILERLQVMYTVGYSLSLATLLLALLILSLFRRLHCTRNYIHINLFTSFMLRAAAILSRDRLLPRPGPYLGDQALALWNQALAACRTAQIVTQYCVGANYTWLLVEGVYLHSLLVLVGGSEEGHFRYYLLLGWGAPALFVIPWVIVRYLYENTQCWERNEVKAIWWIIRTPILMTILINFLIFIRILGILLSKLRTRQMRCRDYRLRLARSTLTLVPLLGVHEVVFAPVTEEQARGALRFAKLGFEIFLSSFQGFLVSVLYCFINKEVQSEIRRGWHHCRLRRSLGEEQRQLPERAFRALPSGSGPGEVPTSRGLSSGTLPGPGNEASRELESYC

B1: Compound No. 42 (peptide)
peptide: [NMeY][Aib]EGTFISDYSIALDR[Aib]AQ[Aib]K(2OEGgEgE‑C18 diacid)FVNWLLAQSG-OH
B2: Compound No. 21 (peptide)
peptide: [NMeY][Aib]EGTFISDYSIALDR[Aib]AQ[Aib]K([AEEA-AEEA-γGlu-γGlu-C18 diacid])FVNWLLAQRGGGGS-NH2
B3: Compound No. 29 (peptide)
peptide: [NMeY][Aib]EGTFISDYSI[Aib]K([AEEA-AEEA-γGlu-γGlu-C17 diacid])DR[Aib]AQ[Aib]NFVNWLLAQSPSSGAPPPS-NH2
B4: Compound No. 155 (peptide)
peptide: Y[Aib]EGTFISDYSIALDK[Aib]AQAK([AEEA-AEEA-γGlu-γGlu-C18 diacid])FVEWLLAQRG-OH
modifications: N-terminus assumed
SMILES: CC[C@H](C)[C@H](NC(=O)[C@H](CO)NC(=O)[C@H](Cc1ccc(O)cc1)NC(=O)[C@H](CC(=O)O)NC(=O)[C@H](CO)NC(=O)[C@@H](NC(=O)[C@H](Cc1ccccc1)NC(=O)[C@@H](NC(=O)CNC(=O)[C@H](CCC(=O)O)NC(=O)C(C)(C)NC(=O)[C@@H](N)Cc1ccc(O)cc1)[C@@H](C)O)[C@@H](C)CC)C(=O)N[C@@H](C)C(=O)N[C@@H](CC(C)C)C(=O)N[C@@H](CC(=O)O)C(=O)N[C@@H](CCCCN)C(=O)NC(C)(C)C(=O)N[C@@H](C)C(=O)N[C@@H](CCC(N)=O)C(=O)N[C@@H](C)C(=O)N[C@@H](CCCCNC(=O)COCCOCCNC(=O)COCCOCCNC(=O)CC[C@H](NC(=O)CC[C@H](NC(=O)CCCCCCCCCCCCCCCCC(=O)O)C(=O)O)C(=O)O)C(=O)N[C@@H](Cc1ccccc1)C(=O)N[C@H](C(=O)N[C@@H](CCC(=O)O)C(=O)N[C@@H](Cc1c[nH]c2ccccc12)C(=O)N[C@@H](CC(C)C)C(=O)N[C@@H](CC(C)C)C(=O)N[C@@H](C)C(=O)N[C@@H](CCC(N)=O)C(=O)N[C@@H](CCCNC(=N)N)C(=O)NCC(=O)O)C(C)C
B5: Compound No. 30 (peptide)
peptide: [NMeY][Aib]EGTFISDYSIALDR[Aib]AQ[Aib]K([AEEA-AEEA-γGlu-γGlu-C17 diacid])FVNWLLAQRGGGGS-NH2
B6: Compound No. 26 (peptide)
peptide: [NMeY][Aib]EGTFISDYSI[Aib]LDRK([AEEA-AEEA-γGlu-γGlu-C18 diacid])AQ[Aib]NFVNWLLAQRPSSGAPPPS-NH2
B7: Compound No. 31 (peptide)
peptide: [NMeY][Aib]EGTFISDYSIALDR[Aib]K([AEEA-AEEA-γGlu-γGlu-C17 diacid])Q[Aib]NFVNWLLAQSGGGGS-NH2
B8: Compound No. 23 (peptide)
peptide: [NMeY][Aib]EGTFISDYSIALDRK([AEEA-AEEA-γGlu-C18 diacid])AQ[Aib]DFVNWLLAQRPSSGAPPPS-NH2
B9: Compound No. 38 (peptide)
peptide: YXEGTFISDYSIAXDRXAQXDFVNWLLAQSPSSGAPPPS
modifications: N-methyl Tyr 1; Aib at 2,17,20; Lys(G5-C18 diacid) at 14; C-terminal NH2
B10: Compound No. 44 (peptide)
peptide: YXEGTFISDYSIAXDRXAQXNFVNWLLAQRPSSGAPPPS
modifications: N-methyl Tyr 1; Aib at 2,17,20; Lys(G5-C18 diacid) at 14; C-terminal OH
B11: Compound No. 48 (peptide)
peptide: YXEGTFISDYSIXXDRXAQXDFVNWLLAQSPSSGAPPPS
modifications: N-methyl Tyr 1; Aib at 2,13,17,20; Lys(G5-C18 diacid) at 14; C-terminal NH2
B12: Compound No. 45 (peptide)
peptide: YXEGTFISDYSIAXDRXAQXNFVNWLLAQSPSSGAPPPS
modifications: N-methyl Tyr 1; Aib at 2,17,20; Lys(G5-C18 diacid) at 14; C-terminal OH
B13: Compound No. 47 (peptide)
peptide: YXEGTFISDYSIXXDRXAQXDFVNWLLAQSPSSGAPPPS
modifications: N-methyl Tyr 1; Aib at 2,13,17,20; Lys(G5-C18 diacid) at 14; C-terminal OH
B14: Compound No. 43 (peptide)
peptide: YXEGTFISDYSIAXDRXAQXDFVNWLLAQRPSSGAPPPS
modifications: N-methyl Tyr 1; Aib at 2,17,20; Lys(G5-C18 diacid) at 14; C-terminal OH
B15: Compound No. 22 (peptide)
peptide: [NMeY][Aib]EGTFISDYSIAK([G5-γGlu-C17 diacid])DR[Aib]AQ[Aib]DFVNWLLAQRPSSGAPPPS-NH2
B16: Compound No. 46 (peptide)
peptide: [NMeY][Aib]EGTFISDYSIALDR[Aib]K(2OEGgEgE‑C18 diacid)Q[Aib]NFVNWLLAQSG-OH
modifications: N-terminus assumed
SMILES: CC[C@H](C)[C@H](NC(=O)[C@H](CO)NC(=O)[C@H](Cc1ccc(O)cc1)NC(=O)[C@H](CC(=O)O)NC(=O)[C@H](CO)NC(=O)[C@@H](NC(=O)[C@H](Cc1ccccc1)NC(=O)[C@@H](NC(=O)CNC(=O)[C@H](CCC(=O)O)NC(=O)C(C)(C)NC(=O)[C@H](Cc1ccc(O)cc1)NC)[C@@H](C)O)[C@@H](C)CC)C(=O)N[C@@H](C)C(=O)N[C@@H](CC(C)C)C(=O)N[C@@H](CC(=O)O)C(=O)N[C@@H](CCCNC(=N)N)C(=O)NC(C)(C)C(=O)N[C@@H](CCCCNC(=O)COCCOCCNC(=O)COCCOCCNC(=O)CC[C@H](NC(=O)CC[C@H](NC(=O)CCCCCCCCCCCCCCCCC(=O)O)C(=O)O)C(=O)O)C(=O)N[C@@H](CCC(N)=O)C(=O)NC(C)(C)C(=O)N[C@@H](CC(N)=O)C(=O)N[C@@H](Cc1ccccc1)C(=O)N[C@H](C(=O)N[C@@H](CC(N)=O)C(=O)N[C@@H](Cc1c[nH]c2ccccc12)C(=O)N[C@@H](CC(C)C)C(=O)N[C@@H](CC(C)C)C(=O)N[C@@H](C)C(=O)N[C@@H](CCC(N)=O)C(=O)N[C@@H](CO)C(=O)NCC(=O)O)C(C)C
B17: Compound No. 24 (peptide)
peptide: [NMeY][Aib]EGTFISDYSIAK([G5-γGlu-C18 diacid])DR[Aib]AQ[Aib]DFVNWLLAQRPSSGAPPPS-NH2
B18: Compound No. 2 (peptide)
peptide: [NMeY][Aib]EGTFISDYSIALDRIHQ[Aib]NFVNWLLAQK([AEEA-AEEA-γGlu-C18 diacid])PSSGAPPPS-NH2
B19: Compound No. 32 (peptide)
peptide: [NMeY][Aib]EGTFISDYSI[Aib]K([AEEA-AEEA-γGlu-γGlu-C17 diacid])DR[Aib]AQ[Aib]NFVNWLLAQRGGGGS-NH2
B20: Compound No. 35 (peptide)
peptide: [NMeY][Aib]EGTFISDYSIALDR[Aib]AQ[Aib]K([AEEA-AEEA-γGlu-γGlu-C18 diacid])FVNWLLAQRPSSGAPPPS-NH2
B21: Compound No. 33 (peptide)
peptide: [NMeY][Aib]EGTFISDYSI[Aib]LDR[Aib]AQ[Aib]NFVNWLLAQK([AEEA-AEEA-γGlu-γGlu-C17 diacid])GGGGS-NH2
B22: Compound No. 28 (peptide)
peptide: [NMeY][Aib]EGTFISDYSI[Aib]K([AEEA-AEEA-γGlu-γGlu-C18 diacid])DR[Aib]AQ[Aib]NFVNWLLAQRPSSGAPPPS-NH2
B23: Compound No. 25 (peptide)
peptide: [NMeY][Aib]EGTFISDYSIALDR[Aib]K([AEEA-AEEA-γGlu-C17 diacid])Q[Aib]DFVNWLLAQRPSSGAPPPS-NH2
B24: Compound No. 34 (peptide)
peptide: [NMeY][Aib]EGTFISDYSIAK([G5-γGlu-γGlu-C18 diacid])DR[Aib]AQ[Aib]NFVNWLLAQRPSSGAPPPS-NH2
B25: Compound No. 3 (peptide)
peptide: [NMeY][Aib]EGTFISDYSIAK([AEEA-AEEA-γGlu-C18 diacid])DRIHQQNFVNWLLAQRPSSGAPPPS-NH2

Columns and labels:
[1] = biological target: T1, full-length human GIPR with an …; assay: cell-based or functional assay
[2] = biological target: full-length human GLP-1R with an N-terminal FLAG tag (human, UniProt P43220 24-463); assay: cell-based or functional assay

| Binder | Human GIPR cAMP EC50, HEK293T [1] | Human GLP1R cAMP EC50, HEK293T [2] |
| --- | --- | --- |
| B1 | 0.0008 nM | 5.5 nM |
| B2 | 0.0004 nM | 34.7 nM |
| B3 | 0.0004 nM | 417 nM |
| B4 | 0.0008 nM | 85.1 nM |
| B5 | 0.0006 nM | 105 nM |
| B6 | 0.0003 nM | 38.9 nM |
| B7 | 0.0003 nM | 170 nM |
| B8 | 0.0003 nM | 50.1 nM |
| B9 | 0.0006 nM | 45.7 nM |
| B10 | 0.0017 nM | 10.7 nM |
| B11 | 0.0007 nM | 87.1 nM |
| B12 | 0.0006 nM | 8.22 nM |
| B13 | 0.0008 nM | 148 nM |
| B14 | 0.001 nM | 61.7 nM |
| B15 | 0.0005 nM | 525 nM |
| B16 | 0.0003 nM | 105 nM |
| B17 | 0.0004 nM | 191 nM |
| B18 | 0.0003 nM | 525 nM |
| B19 | 0.0003 nM | 1000 nM |
| B20 | 0.0007 nM | 89.1 nM |
| B21 | 0.0008 nM | 437 nM |
| B22 | 0.0003 nM | 20.9 nM |
| B23 | 0.0019 nM | 145 nM |
| B24 | 0.0004 nM | 1000 nM |
| B25 | 0.0006 nM | 10.5 nM |
